These results are taken from the supplement of paper PMC5998384.

Data set [1] relates to HeLa Kyoto. In words: solubility in G1/S (NP-40 vs SDS abundance) (log2 ratio); higher = more soluble. Particulars: cell cycle stage: G1/S.
The subject of data set [2] is HeLa Kyoto. Briefly: solubility change mitosis vs G1/S (difference of NP-40 vs SDS log2 ratios) (log2 ratio difference); higher = more soluble in mitosis.
For data set [3], the system named is HeLa Kyoto. In words: melting temperature (median over replicates), in situ; higher = more thermally stable.
Data set [4] concerns HeLa Kyoto. Briefly: thermal stability score vs G1/S (z-score of summed log2 fold changes over temperatures); higher = more thermally stable than in G1/S.
The mark [5] stands for this setting: cell cycle stage: early G1 (4.5 h after nocodazole release).
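Throughout, for melting temperature (median over replicates), in situ: HeLa Kyoto cells synchronized by double thymidine or nocodazole block, proteins quantified by TMT10plex mass spectrometry, three independent biological replicates.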
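Throughout, for solubility change mitosis vs G1/S (difference of NP-40 vs SDS log2 ratios): synchronized HeLa Kyoto cells (double thymidine block for G1/S, nocodazole release for mitosis), protein amounts in NP-40 versus SDS lysates quantified by mass spectrometry, three biological replicates.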
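Throughout, for solubility in G1/S (NP-40 vs SDS abundance): HeLa Kyoto cells arrested at G1/S by double thymidine block, proteins quantified by TMT10plex mass spectrometry in mild NP-40 versus SDS extracts, three biological replicates.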
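Throughout, for thermal stability score vs G1/S (z-score of summed log2 fold changes over temperatures): synchronized HeLa Kyoto cells, proteins quantified by TMT10plex mass spectrometry, three biological replicates, mitosis taken 0.5 h after nocodazole release, G1/S directly after double thymidine block.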

Sequence of TROVE2 (chain, as listed by the source): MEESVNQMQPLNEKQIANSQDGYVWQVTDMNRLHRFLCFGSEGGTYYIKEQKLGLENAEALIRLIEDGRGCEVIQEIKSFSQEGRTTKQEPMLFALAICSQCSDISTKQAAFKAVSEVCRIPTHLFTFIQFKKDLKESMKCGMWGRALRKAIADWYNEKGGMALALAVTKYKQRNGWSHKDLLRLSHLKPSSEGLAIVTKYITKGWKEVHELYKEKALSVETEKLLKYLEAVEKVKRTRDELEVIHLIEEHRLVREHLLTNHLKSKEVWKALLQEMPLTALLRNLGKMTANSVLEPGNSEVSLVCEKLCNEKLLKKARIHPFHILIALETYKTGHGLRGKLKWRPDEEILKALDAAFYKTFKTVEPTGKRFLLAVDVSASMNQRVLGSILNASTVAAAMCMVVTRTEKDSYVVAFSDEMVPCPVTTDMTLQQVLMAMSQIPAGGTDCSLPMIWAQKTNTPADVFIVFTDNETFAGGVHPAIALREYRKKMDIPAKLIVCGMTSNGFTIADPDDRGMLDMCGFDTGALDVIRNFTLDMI

Regarding “MEPPYSLTAHYDEFQEVKYVSRCGAGGARGASLPPGFPLGAARSATGARSGLPRWNRREVCLLSGLVFAAGLCAILAAMLALKYLGPVAAGGGACPEGCPERKAFARAARFLAANLDASIDPCQDFYSFACGGWLRRHAIPDDKLTYGTIAAIGEQNEERLRRLLARPGGGPGGAAQRKVRAFFRSCLDMREIERLGPRPMLEVIEDCGGWDLGGAEERPGVAARWDLNRLLYKAQGVYSAAALFSLTVSLDDRNSSRYVIRIDQDGLTLPERTLYLAQDEDSEKILAAYRVFMERVLSLLGADAVEQKAQEILQVEQQLANITVSEHDDLRRDVSSMYNKVTLGQLQKITPHLRWKWLLDQIFQEDFSEEEEVVLLATDYMQQVSQLIRSTPHRVLHNYLVWRVVVVLSEHLSPPFREALHELAQEMEGSDKPQELARVCLGQANRHFGMALGALFVHEHFSAASKAKVQQLVEDIKYILGQRLEELDWMDAETRAAARAKLQYMMVMVGYPDFLLKPDAVDKEYEFEVHEKTYFKNILNSIRFSIQLSVKKIRQEVDKSTWLLPPQALNAYYLPNKNQMVFPAGILQPTLYDPDFPQSLNYGGIGTIIGHELTHGYDDWGGQYDRSGNLLHWWTEASYSRFLRKAECIVRLYDNFTVYNQRVNGKHTLGENIADMGGLKLAYHAYQKWVREHGPEHPLPRLKYTHDQLFFIAFAQNWCIKRRSQSIYLQVLTDKHAPEHYRVLGSVSQFEEFGRAFHCPKDSPMNPAHKCSVW [ECEL1]”, the “solubility in G1/S (log2)” value in the data set with HeLa Kyoto [1] is -0.0684. Further, the “solubility change mitosis (log2)” value in the data set on HeLa Kyoto [2] was -0.124. The melting temperature turned out to be 52.9 °C in the data set with HeLa Kyoto [3] (cell cycle stage: G1/S) and 52.1 °C in the data set with HeLa Kyoto [3] (cell cycle stage: mitosis). The results for the thermal stability score in the data set with HeLa Kyoto [4] (setting [5]) and in the data set on HeLa Kyoto [4] (cell cycle stage: mitosis) were 0.162 and 2.03, respectively.
On to TROVE2, for which the “solubility in G1/S (log2)” value in the data set with HeLa Kyoto [1] is -0.149. Also, in the data set on HeLa Kyoto [2], the “solubility change mitosis (log2)” value is -0.0914. Moreover, the melting temperature in the data set with HeLa Kyoto [3] (cell cycle stage: G1/S) turned out to be 57.5 °C; with HeLa Kyoto [3] (cell cycle stage: mitosis), 54.7 °C. The thermal stability score in the data set on HeLa Kyoto [4] (setting [5]) is -4.29; in the data set with HeLa Kyoto [4] (cell cycle stage: mitosis), -4.23.
Regarding “MSWGTELWDQFDNLEKHTQWGIDILEKYIKFVKERTEIELSYAKQLRNLSKKYQPKKNSKEEEEYKYTSCKAFISNLNEMNDYAGQHEVISENMASQIIVDLARYVQELKQERKSNFHDGRKAQQHIETCWKQLESSKRRFERDCKEADRAQQYFEKMDADINVTKADVEKARQQAQIRHQMAEDSKADYSSILQKFNHEQHEYYHTHIPNIFQKIQEMEERRIVRMGESMKTYAEVDRQVIPIIGKCLDGIVKAAESIDQKNDSQLVIEAYKSGFEPPGDIEFEDYTQPMKRTVSDNSLSNSRGEGKPDLKFGGKSKGKLWPFIKKNKLMSLLTSPHQPPPPPPASASPSAVPNGPQSPKQQKEPLSHRFNEFMTSKPKIHCFRSLKRGLSLKLGATPEDFSNLPPEQRRKKLQQKVDELNKEIQKEMDQRDAITKMKDVYLKNPQMGDPASLDHKLAEVSQNIEKLRVETQKFEAWLAEVEGRLPARSEQARRQSGLYDSQNPPTVNNCAQDRESPDGSYTEEQSQESEMKVLATDFDDEFDDEEPLPAIGTCKALYTFEGQNEGTISVVEGETLYVIEEDKGDGWTRIRRNEDEEGYVPTSYVEVCLDKNAKDS [FNBP1]”, in the data set with HeLa Kyoto [1], the “solubility in G1/S (log2)” value is 0.298. In addition, the “solubility change mitosis (log2)” value in the data set on HeLa Kyoto [2] is -0.129. Moreover, the figures for the melting temperature in the data set with HeLa Kyoto [3] (cell cycle stage: G1/S) and in the data set with HeLa Kyoto [3] (cell cycle stage: mitosis) were 49.7 °C and 49.4 °C, respectively. Besides, the thermal stability score was 0.62 in the data set with HeLa Kyoto [4] (setting [5]) and 0.929 in the data set with HeLa Kyoto [4] (cell cycle stage: mitosis).
For “MAMAYLAWRLARRSCPSSLQVTSFPVVQLHMNRTAMRASQKDFENSMNQVKLLKKDPGNEVKLKLYALYKQATEGPCNMPKPGVFDLINKAKWDAWNALGSLPKEAARQNYVDLVSSLSPSLESSSQVEPGTDRKSTGFETLVVTSEDGITKIMFNRPKKKNAINTEMYHEIMRALKAASKDDSIITVLTGNGDYYSSGNDLTNFTDIPPGGVEEKAKNNAVLLREFVGCFIDFPKPLIAVVNGPAVGISVTLLGLFDAVYASDRATFHTPFSHLGQSPEGCSSYTFPKIMSPAKATEMLIFGKKLTAGEACAQGLVTEVFPDSTFQKEVWTRLKAFAKLPPNALRISKEVIRKREREKLHAVNAEECNVLQGRWLSDECTNAVVNFLSRKSKL [ECI2]”, the “solubility in G1/S (log2)” value with HeLa Kyoto [1] stood at 0.369. Moreover, the “solubility change mitosis (log2)” value in the data set with HeLa Kyoto [2] is -0.0636. Further, the melting temperature with HeLa Kyoto [3] (cell cycle stage: G1/S) amounted to 53.6 °C; in the data set with HeLa Kyoto [3] (cell cycle stage: mitosis), 53.2 °C. Besides, the thermal stability score was -0.204 with HeLa Kyoto [4] (setting [5]) and 0.871 in the data set on HeLa Kyoto [4] (cell cycle stage: mitosis).
As for “MAAAGAAVARSPGIGAGPALRARRSPPPRAARLPRLLVLLAAAAVGPGAGGAARLYRAGEDAVWVLDSGSVRGATANSSAAWLVQFYSSWCGHCIGYAPTWRALAGDVRDWASAIRVAALDCMEEKNQAVCHDYDIHFYPTFRYFKAFTKEFTTGENFKGPDRELRTVRQTMIDFLQNHTEGSRPPACPRLDPIQPSDVLSLLDNRGSHYVAIVFESNSSYLGREVILDLIPYESIVVTRALDGDKAFLEKLGVSSVPSCYLIYPNGSHGLINVVKPLRAFFSSYLKSLPDVRKKSLPLPEKPHKEENSEIVVWREFDKSKLYTVDLESGLHYLLRVELAAHKSLAGAELKTLKDFVTVLAKLFPGRPPVKKLLEMLQEWLASLPLDRIPYNAVLDLVNNKMRISGIFLTNHIKWVGCQGSRSELRGYPCSLWKLFHTLTVEASTHPDALVGTGFEDDPQAVLQTMRRYVHTFFGCKECGEHFEEMAKESMDSVKTPDQAILWLWKKHNMVNGRLAGHLSEDPRFPKLQWPTPDLCPACHEEIKGLASWDEGHVLTFLKQHYGRDNLLDTYSADQGDSSEGGTLARGEEEEKRLTPPEVSHGDRDTQSVRPPGALGPRPALPESLHHSLDGKLQSLDGPGAHKEVGGAAPFLGVDFSSLDMSLCVVLYVASSLFLMVMYFFFRVRSRRWKVKHHHPAV [QSOX2]”, in the data set with HeLa Kyoto [1], the “solubility in G1/S (log2)” value was determined as 0.207. Besides, the “solubility change mitosis (log2)” value in the data set on HeLa Kyoto [2] amounted to 0.252. Further, the melting temperature came out at 54.7 °C in the data set on HeLa Kyoto [3] (cell cycle stage: G1/S) and 54.9 °C in the data set on HeLa Kyoto [3] (cell cycle stage: mitosis). Besides, the thermal stability score is -2.12 with HeLa Kyoto [4] (setting [5]) and -0.982 with HeLa Kyoto [4] (cell cycle stage: mitosis).
